# What was measured:
# [1] = biological target: T1, human CCR8 (human, UniProt P51685 1-355); experiment: binding affinity EC50, comparison of Table 12 (FACS on CCR8-expressing cells)
# T1 construct: whole, on cells; also called hCCR8; C-C Motif Chemokine Receptor 8
# [2] = biological target: T1, human CCR8; experiment: cell-based or functional assay
# [3] = biological target: T1, human CCR8; experiment: cell-based or functional assay; remark: listed apart in the source
# [4] = biological target: T1, human CCR8; experiment: FACS on human CCR8-expressing 293F cells
# [5] = biological target: T1, human CCR8; experiment: FACS as in Example 2; T0 (the reference itself)
# [6] = biological target: T1, human CCR8; experiment: FACS as in Example 2; antibody after 40° C. 1 W; ratio to T0
# [7] = biological target: T1, human CCR8; experiment: FACS as in Example 2; antibody after 40° C. 2 W; ratio to T0
# [8] = biological target: T1, human CCR8; experiment: FACS as in Example 2; antibody after 40° C. 4 W; ratio to T0
# [9] = biological target: T1, human CCR8; experiment: FACS as in Example 2; antibody after Oxidation 24 h; ratio to T0
# [10] = biological target: T1, human CCR8; experiment: FACS as in Example 2; antibody after Freeze/thaw 5FT; ratio to T0
# [11] = biological target: T1, human CCR8; experiment: FACS on human CCR8-expressing 293F cells; remark: listed apart in the source
# T1 sequence (P51685 whole entry): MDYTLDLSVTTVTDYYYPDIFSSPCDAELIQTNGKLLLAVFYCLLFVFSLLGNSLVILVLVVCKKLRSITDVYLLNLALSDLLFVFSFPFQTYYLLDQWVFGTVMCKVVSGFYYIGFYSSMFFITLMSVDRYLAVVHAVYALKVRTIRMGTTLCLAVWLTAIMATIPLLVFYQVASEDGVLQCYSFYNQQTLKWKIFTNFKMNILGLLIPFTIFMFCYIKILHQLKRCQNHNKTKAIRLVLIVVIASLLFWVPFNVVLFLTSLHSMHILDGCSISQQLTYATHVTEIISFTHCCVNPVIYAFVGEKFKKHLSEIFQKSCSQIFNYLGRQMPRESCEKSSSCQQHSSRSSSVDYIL
binder,measurement,setting,value
"TPP-23411 (antibody, V domains shown) VH: EVQLLESGGGLVQPGGSLRLSCAASGFTFSSYGMHWVRQAPGKGLEWVSAINWNGGSTGYADSVKGRFTISRDNSKNTLYLQMNSLRAEDTAVYYCARGHHSGYDGRFFDYWGQGTLVTVSS VL: QSVLTQPPSVSGAPGQRVTISCTGSSSNIGAGYNVHWYQQLPGTAPKLLIYTNNRRPSGVPDRFSGSKSGTSASLAISGLRSEDEADYYCAAWDASLSGWVFGGGTKLTVLG",EC50,[1],0.65 nM
"1G17hz3 (antibody, V domains shown, Humanized variant of 1G17) VH: QVQLVQSGAEVKKPGASVKVSCKASGYTFADYEMHWVRQAPGQGLEWMGAIDPETGRTAYAQKFQGRVTMTADRSTSTAYMELSSLRSEDTAVYYCTRRAYWGGWGQGTLVTVSS VL: DVVMTQSPLSLPVTLGQPASISCRSSQSLVHSSGNTYLHWYQQRPGQSPRLLIYKVSNRFSGVPDRFSGSGSGTDFTLKISRVEAEDVGVYFCSQSTHVPYTFGQGTKLEIK",Calcium mobilization IC50,[2],25.3 nM
same,Calcium mobilization IC50 (nM) Ratio; 40° C. 1 W,[3],3.07
same,Calcium mobilization IC50 (nM) Ratio; 40° C. 2 W,[3],1.38
same,Calcium mobilization IC50 (nM) Ratio; 40° C. 4 W,[3],2.35
same,Calcium mobilization IC50 (nM) Ratio; Freeze/thaw 5FT,[3],0.32
same,Calcium mobilization IC50 (nM) Ratio; Oxidation 24 h,[3],1.14
same,Calcium mobilization IC50 (nM) Ratio; T0,[3],1
same,EC50,[4],0.47 nM
same,Affinity EC50 (nM) Ratio,[5],1
same,Affinity EC50 (nM) Ratio,[6],0.91
same,Affinity EC50 (nM) Ratio,[7],1.31
same,Affinity EC50 (nM) Ratio,[8],1.1
same,Affinity EC50 (nM) Ratio,[9],1.71
same,Affinity EC50 (nM) Ratio,[10],2.43
"1G17hz0 (antibody, V domains shown, same VH and VL as mouse 1G17) VH: QVQLQQSGAELVRPGASVTLSCKASGYTFADYEMHWVKQTPVLGLEWIGAIDPETGRTAYNQKFKFKATLTADRSSSTAYMELRSLTSEDSAVYYCTRRAYWGGWGQGTTLTVSS VL: DVVMTQTPLSLPVSLGDQASISCRSSQSLVHSSGNTYLHWYLQKPGQSPKLLIYKVSNRFSGVPDRFSGSGSGTDFTLKISRVEAEDLGVYFCSQSTHVPYTFGGGTKLEIK",EC50,[4],0.451 nM
"1G17hz2 (antibody, V domains shown, Humanized variant of 1G17) VH: QVQLVQSGAEVKKPGASVKVSCKASGYTFADYEMHWVRQAPGQGLEWIGIIDPETGRTSYAQKFQGRATLTADRSTSTAYMELSSLRSEDTAVYYCTRRAYWGGWGQGTLVTVSS VL: DVVMTQSPLSLPVTLGQPASISCRSSQSLVHSSGNTYLNWYQQRPGQSPRLLIYKVSNRDSGVPDRFSGSGSGTDFTLKISRVEAEDVGVYFCSQSTHVPYTFGQGTKLEIK",EC50,[4],333 nM
"3F11hz1 (antibody, V domains shown, Humanized variant of 3F11) VH: EVQLVESGGGLVQPGGSLKLSCAASGFSFNTYAMHWVRQASGKGLEWVGRIRSKSNYYATYYAASVKGRFTISRDDSKNTAYLQMNSLKTEDTAVYYCTRGRELGDYYAMDYWGQGTLVTVSS VL: DIVMTQSPLSLPVTPGEPASISCRSSKSLLHSNGNTYLDWYLQKPGQSPQLLIYRMSNRASGVPDRFSGSGSGTDFTLKISRVEAEDVGVYYCMQHLEYPFTFGQGTKLEIK",binding result,[11],binds
"3F11hz6 (antibody, V domains shown, Humanized variant of 3F11) VH: EVQLVESGGGLVQPGGSLKLSCAASGFSFNTYAMNWVRQASGKGLEWVGRIRSKSNYYATYYAASVKGRFTISRDDSKNTAYLQMNSLKTEDTAVYYCVRGRELGDYYAMDYWGQGTLVTVSS VL: DIVMTQSPLSLPVTPGEPASISCRSSKSLLHSSGNTYLDWFLQKPGQSPQLLIYRMSNRASGVPDRFSGSGSGTDFTLKISRVEAEDVGVYYCMQHLEYPFTFGQGTKLEIK",binding result,[11],binds
"3O20hz2 (antibody, V domains shown, Humanized variant of 3O20) VH: EVQLVESGGGLVQPGGSLKLSCATSGFSFNAYAMNWVRQASGKGLEWVGRIRSKSNNYATYYAASVKGRFTISRDDSKTTLYLQMNSLKTEDTAVYYCVRGGYHGNSAYFDVWGQGTLVTVSS VL: DIVMTQSPLSLPVTPGEPASISCRSSKSLLHSNGNTYLYWFLQKPGQSPQLLIYRMSNLASGVPDRFSGSGSGTDFTLKISRVEAEDVGVYYCLQHLEYPFTFGQGTKLEIK",Calcium mobilization IC50,[2],7.39 nM
same,Calcium mobilization IC50 (nM) Ratio; 40° C. 1 W,[3],3.02
same,Calcium mobilization IC50 (nM) Ratio; 40° C. 2 W,[3],0.98
same,Calcium mobilization IC50 (nM) Ratio; 40° C. 4 W,[3],1.86
same,Calcium mobilization IC50 (nM) Ratio; Freeze/thaw 5FT,[3],1.37
same,Calcium mobilization IC50 (nM) Ratio; Oxidation 24 h,[3],1.42
same,Calcium mobilization IC50 (nM) Ratio; T0,[3],1
same,EC50,[4],0.135 nM
same,Affinity EC50 (nM) Ratio,[5],1
same,Affinity EC50 (nM) Ratio,[6],0.79
same,Affinity EC50 (nM) Ratio,[7],1.14
same,Affinity EC50 (nM) Ratio,[8],1.65
same,Affinity EC50 (nM) Ratio,[9],2.13
same,Affinity EC50 (nM) Ratio,[10],1.22
"3F11hz3 (antibody, V domains shown, Humanized variant of 3F11) VH: EVQLVESGGGLVQPGGSLKLSCAASGFTFSTYAMNWVRQASGKGLEWVGRIRSKSNYYATYYADSVKDRFTISRDDSKNTAYLQMNSLKTEDTAVYYCVRGRELGDYYAMDYWGQGTLVTVSS VL: DIVMTQSPLSLPVTPGEPASISCRSSKSLLHSNGNTYLDWFLQKPGQSPQLLIYRMSNLASGVPDRFSGSGSGTDFTLKISRVEAEDVGVYYCMQHLEYPFTFGQGTKLEIK",binding result,[11],binds
"3F11hz5 (antibody, V domains shown, Humanized variant of 3F11) VH: EVQLVESGGGLVQPGGSLKLSCAASGFSFNTYAMNWVRQASGKGLEWVGRIRSKSNYYATYYAASVKGRFTISRDDSKNTAYLQMNSLKTEDTAVYYCVRGRELGDYYAMDYWGQGTLVTVSS VL: DIVMTQSPLSLPVTPGEPASISCRSSKSLLHSNGNTYLEWYLQKPGQSPQLLIYRMSNRASGVPDRFSGSGSGTDFTLKISRVEAEDVGVYYCMQHLEYPFTFGQGTKLEIK",binding result,[11],binds
"3F11hz0 (antibody, V domains shown, same VH and VL as mouse 3F11) VH: EVQLVESGGGLVQPKGSLKLSCAASGFSFNTYAMNWVRQAPGKGLEWVARIRSKSNYYATYYADSVKDRFTISRDDSESMLYLQMNNLKTEDTAMYYCVRGRELGDYYAMDYWGQGTSVTVSS VL: DIVMTQAAPSVPVTPGESVSISCRSSKSLLHSNGNTYLYWFLQRPGQSPQLLIYRMSNLASGVPNRFSGSGSGTAFTLRISRVEAEDVGVYYCMQHLEYPFTFGSGTKLEIK",EC50,[4],0.309 nM
"3O20hz0 (antibody, V domains shown, same VH and VL as mouse 3O20) VH: EVQLVESGGGLVQPKGSLKLSCATSGFSFNAYAMNWVRQAPGKGLEWVGRIRSKSNNYATYYADSVKGRFTISRDDSKTILYLQMNTLKTEDTAIYYCVRGGYHGNSAYFDVWGTGTSVTVSS VL: DIVMTQAAPSVPVTPGESVSISCRSSKSLLHSNGNTYLYWFLQRPGQSPQLLIYRMSNLASGVPDRFSGSGSGTAFTLRISRVEAEDVGVYYCLQHLEYPFTFGSGTKLEIK",EC50,[4],0.185 nM
